The values that follow come from doi:10.1101/2024.02.09.579451.

In this assay the target is T1, human Kir2.1 channel, wild type (Kir2.1-WT) (human), P63252.
T1 chain: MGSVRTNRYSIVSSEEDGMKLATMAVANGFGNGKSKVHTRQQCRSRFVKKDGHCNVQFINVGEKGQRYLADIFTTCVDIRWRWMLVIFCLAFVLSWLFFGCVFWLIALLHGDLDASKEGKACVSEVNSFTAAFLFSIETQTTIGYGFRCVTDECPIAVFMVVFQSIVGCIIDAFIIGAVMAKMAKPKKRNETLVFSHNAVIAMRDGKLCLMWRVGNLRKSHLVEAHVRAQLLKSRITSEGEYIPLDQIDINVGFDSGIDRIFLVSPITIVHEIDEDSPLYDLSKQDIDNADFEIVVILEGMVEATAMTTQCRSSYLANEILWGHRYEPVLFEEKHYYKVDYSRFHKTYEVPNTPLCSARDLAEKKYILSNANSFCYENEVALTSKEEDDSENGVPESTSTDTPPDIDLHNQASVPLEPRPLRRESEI
In words: SEC-MALLS. The following applies: remark: other sources report otherwise.

B1: human Kir2.1 channel, wild type (Kir2.1-WT), P63252 1-427 (natural protein)
chain: T1 chain
The molecule B1 had a stoichiometry N of 4.
